Measurements as given in patent US9333272B2, “Fibrin binding peptide conjugates for diagnostic and therapeutic applications” (Bracco Imaging SpA, priority 2006, dated 2016).
Ends that are not written are not given here.

Target: T1, fibrin in tumor, Neuro 2A neuroblastoma (Mus musculus, UniProt E9PV24+Q8K0E8+Q8VCM7)
T1 construct: from tissue; host or cells: tumor stroma of living mice (BALB-neuT mammary tumor, TRAMP prostate tumor, Neuro-2a neuroblastoma in A/J mice)
T1 sequence (E9PV24 20-557 isoform E9PV24-2 limits assumed): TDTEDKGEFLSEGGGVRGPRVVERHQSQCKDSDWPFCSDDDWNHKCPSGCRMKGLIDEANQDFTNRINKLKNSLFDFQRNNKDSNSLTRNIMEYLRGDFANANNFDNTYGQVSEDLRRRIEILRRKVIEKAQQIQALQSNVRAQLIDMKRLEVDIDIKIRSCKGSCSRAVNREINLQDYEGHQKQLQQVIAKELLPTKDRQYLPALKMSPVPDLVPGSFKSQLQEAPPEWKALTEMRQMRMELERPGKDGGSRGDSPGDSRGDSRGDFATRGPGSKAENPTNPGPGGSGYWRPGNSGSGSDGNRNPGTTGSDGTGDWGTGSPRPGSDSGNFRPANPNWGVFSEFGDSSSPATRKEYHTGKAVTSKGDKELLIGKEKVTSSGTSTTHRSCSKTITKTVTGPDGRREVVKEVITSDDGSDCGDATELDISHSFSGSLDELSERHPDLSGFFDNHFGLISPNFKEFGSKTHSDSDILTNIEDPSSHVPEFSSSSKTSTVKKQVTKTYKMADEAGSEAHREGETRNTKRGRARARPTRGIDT
T1 sequence (Q8K0E8 35-481 limits assumed): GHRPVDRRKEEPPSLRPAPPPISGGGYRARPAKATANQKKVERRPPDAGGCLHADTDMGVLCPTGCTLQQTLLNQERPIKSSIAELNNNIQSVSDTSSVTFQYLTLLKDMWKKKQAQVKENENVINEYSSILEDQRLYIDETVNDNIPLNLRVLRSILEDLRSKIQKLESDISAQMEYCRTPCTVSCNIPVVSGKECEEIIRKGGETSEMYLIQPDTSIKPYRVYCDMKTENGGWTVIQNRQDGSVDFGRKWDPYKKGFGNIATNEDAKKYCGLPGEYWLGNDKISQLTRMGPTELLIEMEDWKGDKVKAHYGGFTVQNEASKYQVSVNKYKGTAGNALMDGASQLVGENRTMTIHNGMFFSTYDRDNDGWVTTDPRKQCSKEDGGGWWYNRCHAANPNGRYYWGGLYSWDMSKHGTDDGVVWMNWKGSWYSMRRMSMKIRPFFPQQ
T1 sequence (Q8VCM7 26-436): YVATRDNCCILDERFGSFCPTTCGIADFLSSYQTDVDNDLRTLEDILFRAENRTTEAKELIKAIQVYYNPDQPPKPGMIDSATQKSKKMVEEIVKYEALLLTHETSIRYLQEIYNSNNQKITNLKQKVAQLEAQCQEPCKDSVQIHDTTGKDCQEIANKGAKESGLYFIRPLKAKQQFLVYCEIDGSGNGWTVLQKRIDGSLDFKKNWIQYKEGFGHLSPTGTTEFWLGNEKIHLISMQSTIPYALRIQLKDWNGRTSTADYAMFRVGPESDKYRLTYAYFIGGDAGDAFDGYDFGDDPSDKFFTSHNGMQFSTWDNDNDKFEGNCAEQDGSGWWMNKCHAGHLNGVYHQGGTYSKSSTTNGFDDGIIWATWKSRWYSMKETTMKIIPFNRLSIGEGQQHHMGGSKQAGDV
Assay: In vivo MRI, neuroblastoma tumor induced by Neuro 2A cells, Example 18
Conditions: 25 μmol/kg of complex, 4 h post injection, 2T
Protocol: This test has been performed on mice with neuroblastoma tumor induced by inoculation of 2.10^6 Neuro 2A cells.
Two groups of 5 mice each inoculated were formed to test the Reference compound 2 and the Chelate complex 1.
At day-10 post tumor cells inoculation, mice with similar tumor size (5-10 mm in diameter) were selected for the in vivo MRI tests. Before and post contrast administration, T1 and T2 high resolution 2D spin-echo and 3D gradient echo images were acquired. MRI was performed at 4 h and 24 h post injection. The maximum signal intensity was measured in the entire tumor area and in each image post contrast covering the whole tumor and compared to the pre-contrast images. At the end of MRI exams, all animals were sacrificed and the tumor, blood, liver, kidneys and femoral bone were removed and prepared for Gd assay by ICP. […]
The signal intensity was measured within a region of interest (ROI) including the entire tumor, drawn by an operator on each MR image using a dedicated software (MR Research Systems Ltd, Surrey UK). Signal intensity enhancement (Enh %) was determined as: Enh %=100*(SIx(t)−SI0)/SI0 where SI0 and SIx(t) were the signal intensity of tumor pre and post injection of the contrast agent (test articles or reference), respectively.

Q: For “Chelate Complex 1: Gd chelate (four DTPA-Glu) conjugated via linker to fibrin-binding peptide SEQ ID NO:001 (WQPCPAESWTFCWDPGGGK; cysteine pairing not given here; also: Gd chelate (four DTPA-Glu) conjugated via linker, site not given here, metal complex: Gd)”, which “Tumor signal enhancement (T1 weighted MRI), in words” value is on record?
A: high signal enhancement inside tumor

Q: What about the “Tumor signal enhancement (T1 weighted MRI), in words” value (listed as chelate complex 1) of the same substance?
A: significant tumor signal enhancement
